Assay results as given in patent US7670806B2, “ADP-ribosyl acceptor hydrolase 3 (ARH3) polypeptides and methods of use” (The United States of America as represented by the …, priority 2005, dated 2010).

Legend:
[1] = Hydrolysis of O-acetyl-[14C]ADP-ribose by ARH proteins / PARG (RP-HPLC); type: biochemical; settings: 1.5 pmol wild type or mutant human ARH3 or 20 mU PARG, 2 h at 30° C.; mouse ARH1, 2, 3
Experimental: FIG. 13A is a graph illustrating the results from incubation of 1.5 pmol of mouse ARH3 with or without 5 mM DTT and/or 10 mM MgCl2 as described in FIG. 11B with incubation for 1 h at 30° C. FIG. 13B is a graph illustrating the results from incubation of 1.5 pmol of wild type or mutant human (D77-78) ARH3 or 20 mU of PARG for 2 h at 30° C. *D77,78, assays incubated with 15 pmol of mutant human ARH3 (D77, D78).
FIG. 14A is a graph of the results from incubation with the indicated amount of mouse ARH1, 2, or 3 for 2 h at 30° C. FIG. 14B is a graph of the results from incubation with 230 pmol of mouse ARH1 at 30° C. for the indicated time.
Mouse ARH3 (2 pmol) and 2.5 μM O-acetyl-[^14C]ADP-ribose (5,000 cpm) in 200 μl of buffer containing 50 mM potassium phosphate (pH 7.0), 10 mM MgCl2 and 5 mM DTT were incubated for 2 h at 30° C., before separation of substrate and products using RP-HPLC as described below.
Hydrolysis of O-acetyl-[^14C]ADP-ribose catalyzed by ARH3. Assays containing the indicated concentration of O-acetyl-[^14C]-ADP-ribose (0.1 to 2 nmol, 1,000 to 20,000 cpm) and 1.5 pmol of ARH3 in 200 μl of buffer (50 mM KPO4 (pH 7.0), 10 mM MgCl2, 5 mM DTT) were incubated at 30° C. for 20 min. Substrate and products were separated using RP-HPLC. Amounts of product were corrected for ADP-ribose produced in the absence of ARH3 before calculation of hydrolysis rates.
Because O-acetyl-ADP-ribose was known to be hydrolyzed at alkaline pH Tanny and Moazed (2001), Proc Natl Acad Sci USA. 98(2):415-20, Epub Dec. 26, 2000), it was generated at pH 7.0 in the presence of [^14C-adenine] β-NAD, Sir2, and acetylated histone H3 peptide (FIG. 11A), and the products of Sir2 and ARH3 were analyzed using reverse-phase HPLC at the same pH (FIGS. 11A,B). The products of the ARH3-catalyzed reaction were also analyzed by high resolution-polyacrylamide gel electrophoresis (FIG. 11C). O-acetyl-[^14C]ADP-ribose hydrolase activity was time and ARH3 dependent (FIG. 12) and essentially completely dependent on Mg^2+ (FIG. 13A).
O-acetyl-ADP-ribose hydrolysis by ARH1 was time and ARH1 dependent (FIG. 14b).

[2] = Poly(ADP-ribose) hydrolysis (autoradiography, high resolution PAGE, HPLC); type: biochemical; settings: for Release of [14C]ADP-ribose from [14C]poly(ADP-ribose)PARP relative to wild-type ARH3: 50 nM human ARH3 (wild-type or mutant), ~2 μM ADP-ribose, HPLC C18; for Poly(ADP-ribose) hydrolysis (in words): [32P]poly(ADP-ribose) or poly(ADP-ribose)PARP, 37° C., autoradiography / PAGE / HPLC
Experimental: Poly(ADP-ribose) hydrolysis by autoradiography. [^32P]poly(ADP-ribose)PARP (500 ng of PARP with poly(ADP-ribose) was incubated (37° C., 2 h) with 2 μM ARH in 25 μl of 50 mM potassium phosphate buffer, pH 7.5, with or without 10 mM MgCl2 and/or 5 mM DTT. Reactions were stopped by adding 6 μl of 5× Laemmli buffer. Samples (20 μl) of proteins were separated by SDS-PAGE in 4-20% gels and transferred to nitrocellulose membranes that were exposed to X-ray film (Kodak) for 10 h.
Hydrolysis of poly(ADP-ribose) by PARG and ARH3. Purified [^32P] poly(ADP-ribose) (5.5×10^5 cpm, ˜300 nM ADP-ribose) was incubated for the indicated time at 37° C. in 25 μl of 50 mM potassium phosphate, pH 7.5, containing 10 mM MgCl2 and 5 mM DTT with enzyme or other additions as indicated and terminated by addition of 25 μl of 2× electrophoresis buffer (Invitrogen). [^32P]AMP was generated by incubation (37° C., 3 h) of 10 μM [^32P] NAD (10 μCi/reaction) with pyrophosphatase (40 units/mg from SIGMA, 1 mg/ml) in 25 μl of 50 mM KPO4, pH 7.5, and 10 mM MgCl2. [^32P] ADP-ribose was generated in a 25 μl mixture containing 50 mM KPO4, pH 7.5, 25 μg of activated CTA, 10 μM [^32P] NAD (10 μCi/reaction), 10 mM MgCl2, and 5 mM DTT, which was incubated at 30° C. overnight. [^32P] phosphoribosyl-AMP was generated by incubation (37° C., 3 h) of [^32P]poly(ADP-ribose) (5.5×10^5 cpm, ˜300 nM ADP-ribose) with Crotalus adamanteus phosphodiesterase (10 mU/reaction), 25 μl of 50 mM KPO4, pH 7.5, 10 mM MgCl2, and 5 mM DTT. Identities of AMP and ADP-ribose standards were confirmed by HPLC on C18 and SAX columns respectively.
High resolution Polyacrylamide Gel Electrophoresis (PAGE). Polyacrylamide (20%) gels (20×20×0.15 cm) containing polyacrylamide and bis(acrylamide), in a ratio of 19:1, 100 mM Tris-borate, pH 8.3, 2 mM EDTA, 4.4 mM ammonium persulfate, and 3.4 mM TEMED with electrophoresis carried out for 2 h at 400V with 50 mM Tris-borate, pH 8.3, 1 mM EDTA, before application of samples (15 μl) were used for analysis of poly(ADP-ribose) degradation. Subsequent electrophoresis at 400V was stopped when bromophenol blue (BPB) had moved 9 cm from the origin. Gels were exposed to X-ray films (Kodak).
HPLC analysis. HPLC, Hewlett-Packard series 1100 equipped with a diode-array spectrophotometric detector set at 254 nm, was used for separation of reaction products. For anion exchange perfusion chromatography, Zorbax SAX column (4.6×250 mm; DuPont, Wilmington Del.) was washed with 20 mM potassium phosphate, pH 4.5, for 30 min, followed by a linear gradient of 0-1M NaCl in the same buffer for 10 min (30-40 min), then same buffer with 1M NaCl for 10 min (40-50 min) at a flow rate of 1 ml/min. Nicotinamide was eluted at 3 min, NAD at 10 min, and ADP-ribose at 40 min. For reverse phase, Discovery C18 column (4.6×250 mm; SUPELCO, Bellefonte Pa.) was used. Samples were separated isocratically with 100 mM potassium phosphate, pH 6.0 containing 7% methanol at a same flow rate of 1 ml/min. ADP-ribose was eluted at 6 min, NAD at 8 min, nicotinamide 9 min.
Poly(ADP-ribose)PARP was used as substrate to assay potential poly(ADP-ribose) hydrolase activities of recombinant ARH1, 2 or 3. Products were identified by autoradiography and HPLC. Fractions (1 ml) were collected for liquid scintillation counting to quantify [^14C]ADP-ribose, which was eluted in fractions from 34 min to 43 min. Because ARH1 activity may require both DTT and Mg^2+, depending on species (Takada et al. (1993) J. Biol. Chem. 268:17837-17843; Moss et al. (1992) J. Biol. Chem. 267:10481-10488), these reactions were performed with or without 10 mM MgCl2, and/or 5 mM DTT. […] Degradation of [^32P]poly(ADP-ribose) by ARH3 was enhanced by 10 mM MgCl2 (FIG. 4A). Data were similar with mouse ARH3.
Samples of [^14C] ADP-ribosylated PARP (250 ng, 15,000 cpm, ˜850 nM ADP-ribose) were incubated at 37° C. (total volume, 100 μl) with human ARH3 as indicated. […]

Row | Molecule | O-acetyl-ADP-ribose hydrolysis (in words) [1] | Release of [14C]ADP-ribose from [14C]poly(ADP-ribose)PARP relative to wild-type ARH3 [2] | Poly(ADP-ribose) hydrolysis (in words) [2]
1 | ARH3 (E261Q/E262Q): human ARH3 mutant E261Q/E262Q (SEQ ID NO: 3) (protein, listed as Homo sapiens) MAAAAMAAAAGGGAGAARSLSRFRGCLAGALLGDCVGSFYEAHDTVDLTSVLRHVQSLEPDPGTPGSERTEALYYTDDTAMARALVQSLLAKEAFDEVDMAHRFAQEYKKDPDRGYGAGVVTVFKKLLNPKCRDVFEPARAQFNGKGSYGNGGAMRVAGISLAYSSVQDVQKFARLSAQLTHASSLGYNGAILQALAVHLALQGESSSEHFLKQLLGHMEDLEGDAQSVLDARELGMEERPYSSRLKKIGELLDQASVTRQQVVSELGNGIAAFESVPTAIYCFLRCMEPDPEIPSAFNSLQRTLIYSISLGGDTDTIATMAGAIAGAYYGMDQVPESWQQSCEGYEETDILAQSLHRVFQKS | rate similar to wild type | ~98% | catalytic activities similar to that of the wild-type enzyme
2 | ARH3 (E238Q/E239Q): human ARH3 mutant E238Q/E239Q (SEQ ID NO: 4) (protein, listed as Homo sapiens) MAAAAMAAAAGGGAGAARSLSRFRGCLAGALLGDCVGSFYEAHDTVDLTSVLRHVQSLEPDPGTPGSERTEALYYTDDTAMARALVQSLLAKEAFDEVDMAHRFAQEYKKDPDRGYGAGVVTVFKKLLNPKCRDVFEPARAQFNGKGSYGNGGAMRVAGISLAYSSVQDVQKFARLSAQLTHASSLGYNGAILQALAVHLALQGESSSEHFLKQLLGHMEDLEGDAQSVLDARELGMQQRPYSSRLKKIGELLDQASVTREEVVSELGNGIAAFESVPTAIYCFLRCMEPDPEIPSAFNSLQRTLIYSISLGGDTDTIATMAGAIAGAYYGMDQVPESWQQSCEGYEETDILAQSLHRVFQKS | rate similar to wild type | ~97% | catalytic activities similar to that of the wild-type enzyme
3 | ARH2: recombinant mouse or human ARH2, structurally related 39-kDa ADP-ribose-binding protein (protein, listed as Homo sapiens) MEKFKAAMLLGSVGDALGYRNVCKENSTVGMKIQEELQRSGGLDHLVLSPGEWPVSDNTIMHIATAEALTTDYWCLDDLYREMVRCYVEIVEKLPERRPDPATIEGCAQLKPNNYLLAWHTPFNEKGSGFGAATKAMCIGLRYWKPERLETLIEVSVECGRMTHNHPTGFLGSLCTALFVSFAAQGKPLVQWGRDMLRAVPLAEEYCRKTIRHTAEYQEHWFYFEAKWQFYLEERKISKDSENKAIFPDNYDAEEREKTYRKWSSEGRGGRRGHDAPMIAYDALLAAGNSWTELCHRAMFHGGESAATGTIAGCLFGLLYGLDLVPKGLYQDLEDKEKLEDLGAALYRLSTEEK | appeared to be inactive | – | did not
4 | mouse ARH3: murine ARH3 amino acid sequence SEQ ID NO: 6 (protein, listed as Mus musculus) MAVAAAAAATAMSAAGGGGASAARSISRFRGCLAGALLGDCVGAVYEAHDTVSLASVLSHVESLEPDPGTPGSARTETLYYTDDTAMTRALVQSLLAKEAFDEVDMAHRFAQEYKKDPDRGYGAGVITVFKKLLNPKCRDVYEPARAQFNGKGSYGNGGAMRVAGISLAYSSVQDVQKFARLSAQLTHASSLGYNGAILQALAVHLALQGVSSSEHFLEQLLGHMEELEGDAQSVLDAKELGMEERPYSSRLKKVGELLDQDVVSREEVVSELGNGIAAFESVPTAIYCFLRCMEPHPEIPSTFNSLQRTLIYSISLGGDTDTIATMAGAIAGAYYGMEQVPESWQQSCEGFEETDVLAQSLHRVFQESS | – | – | similar
